Stoichiometry N data for one substance are collected here from article PMC4759549.

In assay [1] the target is STY3178, a yfdX protein from Salmonella Typhi (Salmonella Typhi (CT18)). In words: SEC. (Size exclusion chromatography separates by hydrodynamic size, large species first.)
Assay [2] has the same target. The experiment in a line: NMR relaxation (1D 1H-15N T1 and T2, rotational correlation time).

The term stoichiometry N denotes the number of molecules, sites or subunits per partner or assembly. For the substance “STY3178, a yfdX protein from Salmonella Typhi (natural protein)”, the stoichiometry N in assay [1] and in assay [2] was 3 throughout.
